Experimental findings from patent US20110287512 are described below.

Data set [1] has as its system ZFN7264 linker TGLPKPKP (synthetic). As to the kind of experiment: cell_activity. Particulars: yeast, partner ZFN7263; host on 0-bp gap = 1.00.
Data set [2] has as its system ZFN7264 linker TSRPRPKP (synthetic). The data set is described as follows: cell_activity. Particulars: yeast, partner ZFN7263; host on 0-bp gap = 1.00.
The subject of data set [3] is ZFN7264 linker 1e (synthetic). As to the kind of experiment: cell_activity. Particulars: yeast, partner ZFN7263; host on 0-bp gap = 1.00.
Data set [4] concerns ZFN7264 (host, center linker TGSQKP) (synthetic). As to the kind of experiment: cell_activity. Particulars: yeast, partner ZFN7263; host on 0-bp gap = 1.00; host data same as Table 9.
Data set [5] relates to ZFN7264 linker TGGGGSQKP (synthetic). As to the kind of experiment: cell_activity. As to conditions: yeast, partner ZFN7263; host on 0-bp gap = 1.00.
For data set [6], the system named is ZFN7264 (host) (artificial). As to the kind of experiment: cell_activity. Particulars: yeast, paired with 7263 ZFN.
In data set [7] the test system is ZFN7264 linker TGGGGSQKP (artificial). The data set is described as follows: cell_activity. Particulars: yeast, paired with 7263 ZFN.
For data set [8], the system named is ZFN7264 linker TSRPRPKP (artificial). As to the kind of experiment: cell_activity. Particulars: yeast, paired with 7263 ZFN.
The subject of data set [9] is ZFN7264 linker 1e center linker F2-F3 TGSQKP replaced by TVPRPTPPKP (artificial). The data set is described as follows: cell_activity. As to conditions: normalized yeast MEL-1 score.
The subject of data set [10] is ZFN7264 linker TGLPKPKP (artificial). As to the kind of experiment: cell_activity. Particulars: yeast, paired with 7263 ZFN.
The test system of data set [11] is ZFN7263 linker TQRPQIPPKP (synthetic). The data set is described as follows: cell_activity. As to conditions: yeast, partner ZFN7264; host on 0-bp gap = 1.00.
Data set [12] has as its system ZFN7263 linker TGGGGSQKP (synthetic). The data set is described as follows: cell_activity. As to conditions: yeast, partner ZFN7264; host on 0-bp gap = 1.00.
In data set [13] the test system is ZFN7263 linker TPNRCPPTKP (synthetic). The data set is described as follows: cell_activity. As to conditions: yeast, partner ZFN7264; host on 0-bp gap = 1.00.
Data set [14] deals with ZFN7263 linker TPLCQRPMKQKP (synthetic). As to the kind of experiment: cell_activity. Particulars: yeast, partner ZFN7264; host on 0-bp gap = 1.00.
The subject of data set [15] is ZFN7263 linker TYPRPLLAKP (synthetic). The data set is described as follows: cell_activity. Particulars: yeast, partner ZFN7264; host on 0-bp gap = 1.00.
Data set [16] has as its system ZFN7263 linker TPRPPIPKP (synthetic). As to the kind of experiment: cell_activity. As to conditions: yeast, partner ZFN7264; host on 0-bp gap = 1.00.
Data set [17] has as its system ZFN7263 (host, center linker TGSQKP) (synthetic). As to the kind of experiment: cell_activity. Particulars: yeast, partner ZFN7264; host on 0-bp gap = 1.00.
Data set [18] relates to ZFP8196 linker 1d (artificial).
The subject of data set [19] is ZFP8196 linker TPDRPISTCKP (artificial).
The subject of data set [20] is ZFP8196 linker TPSHTPRPKP (artificial).
Data set [21] concerns ZFP8196 linker LRQKDERP (artificial).
Data set [22] concerns ZFP8196 linker 1f (artificial).
In data set [23] the test system is ZFP8196 linker TGEGGKP (artificial).
Data set [24] deals with ZFP8196 linker TPGLHRPKP (artificial).
For data set [25], the system named is ZFP8196 linker TPDAPKPKP (artificial).
Data set [26] concerns ZFP8196 linker TGGGGSQKP (artificial).
In data set [27] the test system is ZFP8196 linker 1c (artificial).
For data set [28], the system named is ZFP8196 linker TEPRAKPPKP (artificial).
For data set [29], the system named is ZFP8196 linker TSSPRSNAKP (artificial).
In data set [30] the test system is ZFP8196 (host, center linker TGEKP) (artificial).
Data set [31] deals with ZFP8196 linker TVSPAPCRSKP (artificial).
For data set [32], the system named is ZFP8196 linker TCPRPPTRKP (artificial).
In data set [33] the test system is ZFP8196 linker TSPRLPAPKP (artificial).
Data set [34] relates to ZFP8196 linker TGYSIPRPKP (artificial).
Data set [35] relates to ZFP7264 linker TKHGTPKHREDKP (artificial).
Data set [36] has as its system ZFP7264 linker TLPPCFRPKP (artificial).
The subject of data set [37] is ZFP7264 linker TGLPKPKP (artificial).
Data set [38] concerns ZFP7264 linker LRQKDERP (artificial).
Data set [39] relates to ZFP7264 linker TLPLPRPKP (artificial).
Data set [40] has as its system ZFP7264 linker TGGGGSQKP (artificial).
The test system of data set [41] is ZFP7264 (host, center linker TGSQKP) (artificial).
In data set [42] the test system is ZFP7264 linker TSRPRPKP (artificial).
Data set [43] concerns ZFP7264 linker TGEGGKP (artificial).
The subject of data set [44] is ZFP7264 linker 1e (artificial).

As for “AAAGCGCTGCTCCG (double strand) [7264 yeast half-site gap CT]”, the activity (normalized MEL-1) amounted to 0.09 in data set [1]; 0.1 in data set [2]; 0.11 in data set [3]; 0.08 in data set [4]; 0.15 in data set [5].

Regarding “AAAGCGGCTCCG (double strand) [7264 yeast half-site 0-bp gap]”, the activity (normalized MEL-1) in data set [6] is 1; in data set [7] it was 0.28; in data set [8], 0.08; in data set [10] it was 0.04. The activity in data set [9] (with invariant 7263 ZFN partner) is 0.08.

For “AAAGCGTAGCTCCG (double strand) [7264 yeast half-site gap TA]”, the activity (normalized MEL-1) worked out at 0.08 in [1]; 0.07 in data set [2]; 0.09 in data set [3]; 0.02 in data set [4]; 0.09 in [5].

As to “AAAGCGTGCTCCG (double strand) [7264 yeast half-site gap T]”, the activity (normalized MEL-1) in [6] turned out to be 0.06; in data set [7] it was 0.34; in data set [8], 3.38; in data set [10], 0.79. In data set [9], this sequence showed an activity of 2.34.

As to “ACTCTGATTGGAAG (double strand) [7263 yeast half-site gap AT]”, the activity (normalized MEL-1) came to 0.02 in data set [11]; 0.02 in data set [12]; 0.03 in data set [13]; 0.01 in data set [14]; 0.05 in data set [15]; 0.03 in data set [16]. In data set [17], the activity (normalized MEL-1) was determined as 0.02.

Consider “ACTCTGCTTGGAAG (double strand) [7263 yeast half-site gap CT]”, for which the activity (normalized MEL-1) in data set [11] worked out at 0.03; in data set [12] it was 0.04; in data set [13], 0.06; in data set [14] it was 0.03; in [15], 0.05; in [16] it was 0.04. The activity (normalized MEL-1) in data set [17] was 0.08.

Regarding “TTAGATAAACTGACCAAAAGGCTATC (double strand) [8196 target gap AC]”, the binding signal (normalized ELISA) in [18] worked out at 0.01; in [19], 0.01; in data set [20], 0.01; in data set [21], 0; in data set [22], 0; in data set [23], 0. For the same sequence, the binding signal (normalized ELISA) in [24] came to 0; in data set [25], 0; in data set [26] it was 0; in data set [27] it was 0; in data set [28], 0.01; in [29], 0. For the same sequence, the binding signal (normalized ELISA) in data set [30], in data set [31], in data set [32], in data set [33] and in [34] was 0 each time.

For the sequence “TTAGATAAACTGTGCAAAAGGCTATC (double strand) [8196 target gap TG]”, the binding signal (normalized ELISA) in data set [18] was found to be 0.01; in [19], 0.02; in data set [20] it was 0.01; in data set [21], 0; in data set [22] it was 0.01; in data set [23], 0. Besides, the binding signal (normalized ELISA) in data set [24] is 0.01; in [25], 0.01; in [26] it was 0; in [27], 0; in [28] it was 0.01; in [29], 0.01. For the same sequence, the binding signal (normalized ELISA) was 0 in [30]; 0.01 in data set [31]; 0.01 in data set [32]; 0.01 in [33]; 0.01 in data set [34].

Regarding “TTAGTTAAAGCGTAGCTCCGAATATC (double strand) [7264 target gap TA]”, the binding signal (normalized ELISA) in data set [35] worked out at 0; in [36], 0.06; in data set [37], 0.02; in data set [38], 0.02; in data set [39], 0.03; in data set [40] it was 0.03. Besides, the binding signal (normalized ELISA) amounted to 0 in [41], 0.03 in [42], 0.02 in [43] and 0.05 in data set [44].
